In patent US20260250651, “CAS12 PROTEINS AND USES THEREOF” (GUANGZHOU REFORGENE MEDICINE CO., LTD., published 2026):
Substitutions are numbered along the chain they refer to.

T1: Cas12i-99 (N295R,N260R,G705R,D590R)
T1 chain: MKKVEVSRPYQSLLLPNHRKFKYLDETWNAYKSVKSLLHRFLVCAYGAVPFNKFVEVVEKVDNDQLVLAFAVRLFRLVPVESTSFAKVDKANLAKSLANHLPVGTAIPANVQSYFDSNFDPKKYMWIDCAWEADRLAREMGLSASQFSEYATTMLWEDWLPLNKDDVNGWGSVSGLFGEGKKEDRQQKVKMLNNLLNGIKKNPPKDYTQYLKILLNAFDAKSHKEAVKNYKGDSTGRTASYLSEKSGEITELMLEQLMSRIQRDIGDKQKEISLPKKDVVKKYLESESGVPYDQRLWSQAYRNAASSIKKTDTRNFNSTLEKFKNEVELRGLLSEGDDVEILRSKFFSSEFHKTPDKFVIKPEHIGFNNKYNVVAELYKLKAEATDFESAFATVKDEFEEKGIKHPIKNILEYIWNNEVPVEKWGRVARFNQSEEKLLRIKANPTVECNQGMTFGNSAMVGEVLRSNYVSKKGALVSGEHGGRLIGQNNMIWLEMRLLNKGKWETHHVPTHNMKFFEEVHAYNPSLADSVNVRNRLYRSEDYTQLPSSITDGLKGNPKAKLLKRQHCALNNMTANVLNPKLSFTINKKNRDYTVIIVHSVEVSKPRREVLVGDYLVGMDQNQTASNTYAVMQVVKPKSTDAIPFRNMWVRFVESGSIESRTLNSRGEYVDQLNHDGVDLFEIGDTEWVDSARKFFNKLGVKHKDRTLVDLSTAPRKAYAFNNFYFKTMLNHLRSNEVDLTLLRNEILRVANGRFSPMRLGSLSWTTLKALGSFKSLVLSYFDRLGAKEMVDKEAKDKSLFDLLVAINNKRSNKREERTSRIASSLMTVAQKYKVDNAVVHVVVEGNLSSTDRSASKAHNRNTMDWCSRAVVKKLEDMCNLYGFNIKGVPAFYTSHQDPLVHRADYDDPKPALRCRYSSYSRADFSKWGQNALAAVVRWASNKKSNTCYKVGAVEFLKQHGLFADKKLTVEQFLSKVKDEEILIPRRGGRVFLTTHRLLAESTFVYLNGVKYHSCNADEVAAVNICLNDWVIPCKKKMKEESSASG

T2: Cas12i-69 (N295R,N260R,G705R)
T2 chain: T1 chain with R590D

B1: gRNA-HBG ; HBG target (ssRNA ; dsDNA)
RNA: AGAGAAUGUGUGCAUAGUCACACACAAGGCAAACUUGACCAAU
DNA 1: ACAAGGCAAACTTGACCAAT
DNA 2: ATTGGTCAAGTTTGCCTTGT
B2: gRNA-TTR ; TTR target (ssRNA ; dsDNA)
RNA: AGAGAAUGUGUGCAUAGUCACACCAGUAAGAUUUGGUGUCUAU
DNA 1: CAGTAAGATTTGGTGTCTAT
DNA 2: ATAGACACCAAATCTTACTG
B3: gRNA-HBB ; HBB target (ssRNA ; dsDNA)
RNA: AGAGAAUGUGUGCAUAGUCACACUAUGCAGAAAUAUUGCUAUUGCCU
DNA 1: TATGCAGAAATATTGCTATTGCCT
DNA 2: AGGCAATAGCAATATTTCTGCATA

Experiments:
[1] = biological target: T1, Cas12i-99; assay: cell_activity; 293T indels
Procedure: (§1) Plating: The 293T cell line was plated when the confluence reached 70-80%, and the number of cells seeded in a 24-well plate was 5*10\hat{ }5 cells/well.
(§2) Transfection: After 12-14 hours of plating, transfection was performed. 100 μl of Opti-MEM, 1.5 μl of PEI (Yisheng Bio, Polyethylenimine Linear (PEI) MW25000), 250 ng of the mutant clone plasmid from Example 2, and 250 ng of gRNA plasmid for targeting endogenous genes were added to each well of a 24-well plate. The mixture was incubated at room temperature for 20 minutes and then added to 293T cells for transfection. After transfection overnight, the medium was replaced with fresh medium and cultured for the next period.
(§3) DNA extraction, PCR amplification, and Sanger sequencing: After culturing for 72 hours, cells were washed with PBS, and then 100 μl of cell lysis buffer (Viagen, DirectPCR® Lysis Reagent (Cell)) was added for lysis to obtain a lysate containing genomic DNA. The genomic DNA was amplified in the region near the target sequence, and the PCR product was sent to a sequencing company for Sanger sequencing.

[2] = biological target: T2, Cas12i-69; assay: cell_activity; 293T indels; editing >15%
Procedure: as §1, §2, §3

| Binder | relative indel editing efficiency [1] | indel editing efficiency [2] | relative indel editing efficiency [2] |
| --- | --- | --- | --- |
| B1 | 7 fold of wild type |  |  |
| B2 | 1.19 fold of Cas12i-69 | 4.68 fold of wild type |  |
| B3 | 0.9 fold of Cas12i-69 |  | 1.58 fold of Cas12i-30 |
